Experiments:
[1] = biological target: T1, human CD70 expressed on the surface of cells (human, UniProt P32970 1-193); assay: FACS MFI at 37 C, HUT78 cells; reference SGN70
T1 construct: whole, on cells; also called cell surface expressed CD70; CD70 on cells
T1 sequence (looked up): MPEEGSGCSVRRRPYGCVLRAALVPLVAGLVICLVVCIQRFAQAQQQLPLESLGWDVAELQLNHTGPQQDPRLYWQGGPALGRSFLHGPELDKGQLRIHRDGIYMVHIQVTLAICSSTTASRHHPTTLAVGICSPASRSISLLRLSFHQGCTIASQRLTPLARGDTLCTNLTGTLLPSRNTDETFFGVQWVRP
Protocol: (§1) Several cancer cell lines were tested by FACS analysis for binding of ARGX-110 and SGN70 (described in US2010/0129362) at saturating mAb concentrations (at least 2 μg/ml). This was either done at 4° C. (1 hour incubation of cells with mAbs) or at 37° C. (15 minutes incubation of cells with mAbs). Binding was detected using anti-hIgG1-Fc-FITC (AF006, Binding Site) or anti-hIgG1-Fc-PE antibody (eBioscience, 12-4998). Fluorescence was measured using a flow cytometer.

[2] = biological target: T1, human CD70 expressed on the surface of …; assay: FACS MFI at 37 C, MKN-45 cells; reference SGN70
Protocol: as §1

[3] = biological target: T1, human CD70 expressed on the surface of …; assay: FACS MFI at 37 C, Granta 519 cells; reference SGN70
Protocol: as §1

[4] = biological target: T2, recombinant human CD70 (Flag-TNC-CD70) (human, UniProt P32970 39-193); assay: blocking ELISA; Flag-TNC-CD70 captured by anti-FLAG M2; competitor CD27-Fc 6.5 nM
T2 construct: extracellular domain; Captured by anti-Flag mAb in ELISA; as 'recombinant human CD70' immobilised on Biacore CM5 chips; TNC is for trimerisation; also called recombinant CD70; human recombinant CD70; not shown: Flag tag and TNC trimerisation domain
T2 sequence (looked up): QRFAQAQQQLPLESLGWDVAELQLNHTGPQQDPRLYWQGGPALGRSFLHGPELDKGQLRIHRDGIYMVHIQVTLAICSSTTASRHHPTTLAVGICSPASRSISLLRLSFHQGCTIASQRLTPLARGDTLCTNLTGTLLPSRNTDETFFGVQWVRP
Protocol: (§2) In this assay, a microtiter plate (Nunc Maxisorb) was first coated with 100 μl anti-FLAG M2 monoclonal antibody (Sigma Aldrich, F3165) at 1250-fold dilution in PBS (to achieve a final concentration of approximately 3.5 μg/ml) overnight at 4° C. The plate was washed once with PBS-Tween and incubated at RT for 2 hours with 300 μl PBS-1% casein. The plate was washed a further three times with PBS-Tween. 100 μl of 5 ng/ml (80 pM) Flag-TNC-CD70 (The Journal of Immunology, 2009, 183: 1851-1861) diluted in PBS-0.1% casein was added to the plate and incubated at RT for 1 hour while shaking. The plate was washed five times with PBS-Tween. The CD70 mAb to be tested was added to the plate; various concentrations were achieved by diluting the stock antibody solution in PBS-0.1% casein. Immediately thereafter, 50 μl of 1 μg/ml (final concentration 6.5 nM) recombinant human CD27 Fc chimera (R&D systems 382-CD, MW=46.5 kDa) was added, and incubated at RT for 1 hour while shaking. The plate was washed five times with PBS Tween. 100 μl of biotinylated anti-CD27 (eBioscience 13-0271), diluted 500-fold in PBS-0.1% casein, was added, and the plate incubated at RT for a further hour, while shaking. The plate was washed five times with PBS Tween. […] 100 μl TMB was added to the plate and the OD at 620 nm was measured. […]

[5] = biological target: T1, human CD70 expressed on the surface of …; assay: FACS MFI at 37 C, PANC-1 cells; reference SGN70
Protocol: as §1

[6] = biological target: T1, human CD70 expressed on the surface of …; assay: FACS MFI at 37 C, EBC-1 cells; reference SGN70
Protocol: as §1

[7] = biological target: T2, recombinant human CD70 (Flag-TNC-CD70); assay: blocking ELISA; competitor CD27-Fc; references SGN70 and MDX1411
Protocol: as §2

[8] = biological target: T3, rhesus recombinant CD70 (FLAG-TNC-rhesus CD70) (rhesus); assay: blocking ELISA; rhesus Flag-TNC-CD70; competitor CD27-Fc
T3 construct: also called rhesus Flag-TNC-CD70

[9] = biological target: T1, human CD70 expressed on the surface of …; assay: FACS MFI at 37 C, U266 cells; reference SGN70
Protocol: as §1

[10] = biological target: cynomolgus monkey Flag-TNC-CD70 (cynomolgus monkey); assay: blocking ELISA; cynomolgus Flag-TNC-CD70; competitor CD27-Fc
Protocol: as §2

- Signal in FACS of ARGX-110/signal in FACS of SGN70 [1]: 1 ratio
- Signal in FACS of ARGX-110/signal in FACS of SGN70 [2]: 10.6 ratio
- Signal in FACS of ARGX-110/signal in FACS of SGN70 [3]: 0.9 ratio
- IC50 [4]: 0.067 µg/mL
- Signal in FACS of ARGX-110/signal in FACS of SGN70 [5]: 2.9 ratio
- Signal in FACS of ARGX-110/signal in FACS of SGN70 [6]: 8.9 ratio
- fold more potent in blocking than the two benchmark mAbs [7]: ~100 fold
- IC50 [8]: 0.075 µg/mL
- Signal in FACS of ARGX-110/signal in FACS of SGN70 [9]: 0.8 ratio
- IC50 [10]: 0.048 µg/mL
B1: ARGX-110 (non-fucosylated 41D12 human IgG1) (antibody, V domains shown)
VH: EVQLVESGGGLVQPGGSLRLSCAASGFTFSVYYMNWVRQAPGKGLEWVSDINNEGGTTYYADSVKGRFTISRDNSKNSLYLQMNSLRAEDTAVYYCARDAGYSNHVPIFDSWGQGTLVTVSS
VL: QAVVTQEPSLTVSPGGTVTLTCGLKSGSVTSDNFPTWYQQTPGQAPRLLIYNTNTRHSGVPDRFSGSILGNKAALTITGAQADDEAEYFCALFISNPSVEFGGGTQLTVLG
notes: also called 41D12 (ARGX-110)

From patent publication US20150266963A1 (ARGEN X B V, published 2015)
